Measured values as given in patent US20240010750A1 (Bayer, published 2024).
Like-named read-outs stand apart in the source and are kept apart here.

T1: human alpha2-Antiplasmin (human, UniProt P08697 40-491)
T1 construct: Bought (antibodies online, ABIN2544306); also called human A2AP; a2AP
T1 sequence: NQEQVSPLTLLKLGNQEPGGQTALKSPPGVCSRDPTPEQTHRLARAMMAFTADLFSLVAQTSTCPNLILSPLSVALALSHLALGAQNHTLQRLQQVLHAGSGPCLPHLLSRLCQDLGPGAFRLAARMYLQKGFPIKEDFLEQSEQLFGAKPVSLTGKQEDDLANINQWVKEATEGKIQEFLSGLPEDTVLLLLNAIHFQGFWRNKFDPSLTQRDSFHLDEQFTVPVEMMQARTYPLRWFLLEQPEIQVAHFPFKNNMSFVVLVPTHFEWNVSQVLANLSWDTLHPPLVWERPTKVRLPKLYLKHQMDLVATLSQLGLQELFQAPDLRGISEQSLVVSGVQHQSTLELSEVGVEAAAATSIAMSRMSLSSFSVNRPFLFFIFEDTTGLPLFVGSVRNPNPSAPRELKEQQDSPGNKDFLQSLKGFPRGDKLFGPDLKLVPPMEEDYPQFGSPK

T2: rabbit alpha2-Antiplasmin (rabbit (Oryctolagus cuniculus))
T2 construct: Made in house in HEK293 cells, purified by Ni-IMAC and SEC (a His tag is implied but not described); also called rabbit A2AP; Oryctolagus cuniculus A2AP
T2 chain: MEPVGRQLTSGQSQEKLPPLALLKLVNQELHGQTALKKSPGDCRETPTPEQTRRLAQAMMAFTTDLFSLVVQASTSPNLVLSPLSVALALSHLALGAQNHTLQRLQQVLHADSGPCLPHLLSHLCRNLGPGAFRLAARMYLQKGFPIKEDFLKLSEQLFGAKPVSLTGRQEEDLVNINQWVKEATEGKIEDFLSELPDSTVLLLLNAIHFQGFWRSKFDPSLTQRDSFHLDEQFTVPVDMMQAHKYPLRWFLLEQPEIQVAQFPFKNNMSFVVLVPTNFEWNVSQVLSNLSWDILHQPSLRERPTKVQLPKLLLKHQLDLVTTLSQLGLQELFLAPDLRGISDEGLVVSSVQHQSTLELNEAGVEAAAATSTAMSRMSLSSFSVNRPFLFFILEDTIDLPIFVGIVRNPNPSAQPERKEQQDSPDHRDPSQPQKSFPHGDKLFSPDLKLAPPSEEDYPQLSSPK

T3: cynomolgus alpha2-Antiplasmin (cynomolgus (Macaca fascicularis), UniProt P08697 28-491 (human entry))
T3 construct: Made in house in the same way as the rabbit protein; also called cynomolgus A2AP; Macaca fascicularis A2AP
T3 chain: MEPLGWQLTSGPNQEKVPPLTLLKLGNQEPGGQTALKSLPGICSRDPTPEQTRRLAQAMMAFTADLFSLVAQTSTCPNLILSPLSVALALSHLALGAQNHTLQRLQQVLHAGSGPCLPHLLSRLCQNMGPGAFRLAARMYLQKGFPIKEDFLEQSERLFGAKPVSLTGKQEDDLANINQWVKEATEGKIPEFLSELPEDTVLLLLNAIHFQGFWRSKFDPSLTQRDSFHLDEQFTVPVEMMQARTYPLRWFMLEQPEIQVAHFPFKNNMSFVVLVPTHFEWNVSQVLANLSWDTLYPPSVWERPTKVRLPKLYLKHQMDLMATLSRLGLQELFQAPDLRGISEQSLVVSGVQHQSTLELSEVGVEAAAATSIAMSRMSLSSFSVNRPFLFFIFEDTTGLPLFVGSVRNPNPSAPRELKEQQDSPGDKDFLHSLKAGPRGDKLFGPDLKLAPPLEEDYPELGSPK


Columns and labels:
human alpha2-Antiplasmin [1] = target: T1, human alpha2-Antiplasmin; experiment: ELISA, coated antigen, 2nd exp.
Procedure: (§1) A standard ELISA format was used for analyzing the binding affinity of Fabs of this invention to human and rabbit alpha-2-Antiplasmin, respectively. Antigens were coated to black 384 well Maxisorp microtiter plates (Nunc; catalogue number 460518), diluted to a concentration of 1 μg/ml in 1× Coating Buffer (Candor Bioscience; catalogue number 121125). Plates were incubated overnight at 4° C. After overnight incubation, plates were washed 2× with 50 μl/well using PBS+0.05% Tween 20. Following this, 50 μl/well of blocking buffer (Smart Block; Candor Bioscience; catalogue number 113500) was added and the plates were incubated for 1 hour at room temperature. Afterwards, plates were washed for 3× using […] PBS+0.05% Tween 20 buffer. Fabs of this invention were added at different concentrations in a final volume of 30 μl/well. Plates were incubated for 1 hour at room temperature. Following this incubation step, plates were washed for 3× using 50 μl/well of a PBS+0.05% Tween 20 buffer. For the detection of bound Fabs and full-length antibodies, the anti-Human Lambda Light Chains (Bound and Free)—Peroxidase antibody (Sigma; catalogue number A5175) was diluted by the factor of 1:10.000 in 10% Blocking Buffer. 30 μl/well of this diluted detection antibody was added and plates are incubated for 1 hour at room temperature. Following this incubation step, plates were washed for 3× using 50 μl/well of a PBS+0.05% Tween 20 buffer. As substrate, a mixture of 30 μl/well of 1:1000 diluted Amplex red (Invitrogen; catalogue number 12222; stock solution 10 mM in DMSO) and 1:10.000 of Hydrogen peroxide (Merck; catalogue number 107209; 30% stock solution) was added and the plates incubated for minutes in the dark.
(§2) For measurement, the Infinite f500 reader (Tecan) was used. Measurement mode: Fluorescence; Top reading; Ex 535 nm; Em 590 nm.
(§3) According to the methods described in Example 3 and Example 4, antibodies TPP-14323, TPP-14318, TPP-14314, TPP-14313, TPP-14308, TPP-14305, TPP-14303, TPP-14298, and TPP-14293 were tested for their ability to bind to and to block the activity of human alpha2-Antiplasmin in a dose-dependent manner. For each antibody, one dose response curve from two to three independent experiments performed in quadruplicate is shown as example in FIG. 7.1 to FIG. 7.18. (see Table 3.3)

human alpha2-Antiplasmin [2] = target: T1, human alpha2-Antiplasmin; experiment: ELISA, coated antigen, 1st exp.
Procedure: as §1, §2, §3

human Plasmin = human Plasmin (human, UniProt P00747 97-580; P00747 581-810, limits assumed); experiment: cell-based or functional assay
human alpha2-Antiplasmin [3] = target: T1, human alpha2-Antiplasmin; experiment: cell-based or functional assay
human alpha2-Antiplasmin [4] = target: T1, human alpha2-Antiplasmin; experiment: cell-based or functional assay; remark: listed apart in the source
human alpha2-Antiplasmin [5] = target: T1, human alpha2-Antiplasmin; experiment: ELISA, coated antigen, 3rd exp.
Procedure: as §1, §2, §3

human alpha2-Antiplasmin [6] = target: T1, human alpha2-Antiplasmin; experiment: cell-based or functional assay; remark: listed apart in the source
human alpha2-Antiplasmin [7] = target: T1, human alpha2-Antiplasmin; experiment: ELISA (Example 3), human alpha2-Antiplasmin coated, RFU
Procedure: as §1, with “As substrate, a mixture of 30 μl/well of 1:1000 diluted Amplex red (Invitrogen; catalogue number 12222; stock solution 10 mM in DMSO) and 1:10.000 of Hydrogen peroxide (Merck; catalogue number 107209; 30% stock solution) was added and the plates incubated for minutes in the dark.” left out
as §2
According to the method described in Example 3, these 12 antibodies were tested for ability to bind human and rabbit alpha2-Antiplasmin in a dose-dependent manner. Data generated were analyzed using the GraphPadPrism software. The binding activities of the antibodies were calculated as EC50 values. […]

human alpha2-Antiplasmin [8] = target: T1, human alpha2-Antiplasmin; experiment: cell-based or functional assay; remark: listed apart in the source
human alpha2-Antiplasmin [9] = target: T1, human alpha2-Antiplasmin; experiment: ELISA (Example 3), human alpha2-Antiplasmin coated, RFU; remark: listed apart in the source
Procedure: as §1, with “30 μl/well of this diluted detection antibody was added and plates are incubated for 1 hour at room temperature. Following this incubation step, plates were washed for 3× using 50 μl/well of a PBS+0.05% Tween 20 buffer. As substrate, a mixture of 30 μl/well of 1:1000 diluted Amplex red (Invitrogen; catalogue number 12222; stock solution 10 mM in DMSO) and 1:10.000 of Hydrogen peroxide (Merck; catalogue number 107209; 30% stock solution) was added and the plates incubated for minutes in the dark.” left out
as §2

human alpha2-Antiplasmin [10] = target: T1, human alpha2-Antiplasmin; experiment: ELISA, coated antigen, quantified unpurified antibody, 2nd exp.
[11] = target: T2, rabbit alpha2-Antiplasmin; experiment: SPR Biacore T200, antibody captured on protein G chip, A2AP as analyte, 25 C
Procedure: (§4) Binding assays were performed on a Biacore T200 instrument at 25° C. with a protein G sensor chip and assay buffer HBS-EP+. Antibodies were captured to ˜150 RU and analytes were used at concentrations between 1.56 and 200 nM for full kinetics. As interaction partner, alpha2-Antiplasmin from human, cynomolgus and rabbit was used. Regeneration was performed with glycine-HCl pH 1.5. Kinetic parameters were derived by fitting experimental sensorgrams to a 1:1 Langmuir binding model.

human alpha2-Antiplasmin [12] = target: T1, human alpha2-Antiplasmin; experiment: as above
Procedure: as §4

[13] = target: T3, cynomolgus alpha2-Antiplasmin; experiment: as above
Procedure: as §4

human alpha2-Antiplasmin [14] = target: T1, human alpha2-Antiplasmin; experiment: ELISA, coated antigen, quantified unpurified antibody, 3rd exp.
Procedure: as §1, §2

human alpha2-Antiplasmin [15] = target: T1, human alpha2-Antiplasmin; experiment: cell-based or functional assay; remark: listed apart in the source
human alpha2-Antiplasmin [16] = target: T1, human alpha2-Antiplasmin; experiment: cell-based or functional assay; remark: listed apart in the source
human alpha2-Antiplasmin [17] = target: T1, human alpha2-Antiplasmin; experiment: ELISA, coated antigen, quantified unpurified antibody, 1st exp.
human alpha2-Antiplasmin [18] = target: T1, human alpha2-Antiplasmin; experiment: cell-based or functional assay; remark: listed apart in the source

Sequence of human Plasmin (P00747 97-580 limits assumed, chain 1 of 2): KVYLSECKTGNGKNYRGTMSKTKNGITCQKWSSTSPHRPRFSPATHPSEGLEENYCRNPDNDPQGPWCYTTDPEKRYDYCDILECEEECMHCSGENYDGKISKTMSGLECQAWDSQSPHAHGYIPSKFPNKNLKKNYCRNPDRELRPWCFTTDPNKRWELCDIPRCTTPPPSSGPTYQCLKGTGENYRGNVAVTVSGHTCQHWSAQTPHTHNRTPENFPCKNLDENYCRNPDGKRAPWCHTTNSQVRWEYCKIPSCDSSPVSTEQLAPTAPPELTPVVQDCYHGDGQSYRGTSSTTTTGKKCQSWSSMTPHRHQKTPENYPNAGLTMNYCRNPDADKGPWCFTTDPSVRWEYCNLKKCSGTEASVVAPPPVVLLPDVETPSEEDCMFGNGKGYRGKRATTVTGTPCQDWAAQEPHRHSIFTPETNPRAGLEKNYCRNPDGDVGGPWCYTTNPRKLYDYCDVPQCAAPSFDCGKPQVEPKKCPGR
Sequence of human Plasmin (P00747 581-810 limits assumed, chain 2 of 2): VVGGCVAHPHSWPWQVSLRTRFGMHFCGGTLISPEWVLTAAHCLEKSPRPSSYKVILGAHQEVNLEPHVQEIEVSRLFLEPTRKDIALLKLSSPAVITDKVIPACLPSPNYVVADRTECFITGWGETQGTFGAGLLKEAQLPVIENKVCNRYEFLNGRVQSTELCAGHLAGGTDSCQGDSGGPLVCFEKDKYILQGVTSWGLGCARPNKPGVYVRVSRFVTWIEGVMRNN

| Binder | EC50 (human alpha2-Antiplasmin [1]) [nM] | EC50 (human alpha2-Antiplasmin [2]) [nM] | IC50 [M], inhibition of plasmin proteolytic activity (human Plasmin) [M] | function blocking activity [IC50 M], 1st exp. (human alpha2-Antiplasmin [4]) [nM] | function blocking activity [IC50 M], 2nd exp. (human alpha2-Antiplasmin [4]) [nM] | function blocking activity [IC50 M], 3rd exp. (human alpha2-Antiplasmin [4]) [nM] | EC50 (human alpha2-Antiplasmin [5]) [nM] | further results |
| --- | --- | --- | --- | --- | --- | --- | --- | --- |
| TPP-14318 hIgG1 (antibody, V domains shown) VH: EVQLLESGGGLVQPGGSLRLSCAASGFTFDDYAMSWVRQAPGKGLEWVSAIGTGGGTYYADSVKGRFTISRDNSKNTLYLQMNSLRAEDTAVYYCAREYYDSSGYYHLEYWGQGTLVTVSS VL: QSVLTQPPSASGTPGQRVTISCTGSSSNIGATYDVHWYQQLPGTAPKLLIYSNNQRPSGVPDRFSGSKSGTSASLAISGLRSEDEADYYCAAWDWSLSGWVFGGGTKLTVLG | 59 | 5.7 | > 1e-05 | 20 | 25 | 22 | 61 | EC50 (read off the curve); function blocking assay (Example 4), RFU of plasmin substrate cleavage (human alpha2-Antiplasmin [3]): ~20 nM |
| TPP-14313 hIgG1 (antibody, V domains shown, Human IgG1 lambda) VH: EVQLLESGGGLVQPGGSLRLSCAASGFTFDDYAMSWVRQAPGKGLEWVSAIGTGGGTYYADSVKGRFTISRDNSKNTLYLQMNSLRAEDTAVYYCAREYYDSSGYYHLVYWGQGTLVTVSS VL: QSVLTQPPSASGTPGQRVTISCTGSSSNIGATYDVHWYQQLPGTAPKLLIYSNNQRPSGVPDRFSGSKSGTSASLAISGLRSEDEADYYCAAWDWSLSGWVFGGGTKLTVL | 35 | 3.3 | > 5e-06 | 12 | 20 | 13 | 34 | EC50 (read off the curve); function blocking assay (Example 4), RFU of plasmin substrate cleavage (human alpha2-Antiplasmin [6]): ~10 nM; EC50 (read off the curve) (human alpha2-Antiplasmin [7]): ~3 nM |
| TPP-14323 hIgG1 (antibody, V domains shown) VH: EVQLLESGGGLVQPGGSLRLSCAASGFTFDDYAMSWVRQAPGKGLEWVSAIGTGGGTYYADSVKGRFTISRDNSKNTLYLQMNSLRAEDTAVYYCAREYYDSSGYYHLTYWGQGTLVTVSS VL: QSVLTQPPSASGTPGQRVTISCTGSSSNIGATYDVHWYQQLPGTAPKLLIYSNNQRPSGVPDRFSGSKSGTSASLAISGLRSEDEADYYCAAWDWSLSGWVFGGGTKLTVLG | 73 | 7 | > 1e-05 | 20 | 20 | 29 | 71 | EC50 (read off the curve); function blocking assay (Example 4), RFU of plasmin substrate cleavage (human alpha2-Antiplasmin [8]): ~20 nM |
| TPP-17045 hIgG1 (antibody, V domains shown, Germline variant of TPP-14308) VH: EVQLLESGGGLVQPGGSLRLSCAASGFTFDDYAMSWVRQAPGKGLEWVSAIGTGGGTYYADSVKGRFTISRDNSKNTLYLQMNSLRAEDTAVYYCAKEGYDSSGYYHLDYWGQGTLVTVSS VL: QSVLTQPPSASGTPGQRVTISCTGSSSNIGATYDVHWYQQLPGTAPKLLIYSNNQRPSGVPDRFSGSKSGTSASLAISGLRSEDEADYYCAAWDWSLSGWVFGGGTKLTVLG |  |  | > 1e-05 |  |  |  |  | EC50 (read off the curve) (human alpha2-Antiplasmin [9]): ~80 pM; EC50 (human alpha2-Antiplasmin [10]): 0.12 nM; Kd [11]: 49 nM; Kd (human alpha2-Antiplasmin [12]): 14 nM; Kd [13]: 11 nM; EC50 (human alpha2-Antiplasmin [14]): 0.11 nM; IC50, A2AP function blocking assay (Example 10) (human alpha2-Antiplasmin [15]): 140 pM; function blocking activity [IC50 M], 1st exp. (human alpha2-Antiplasmin [16]): 400 pM; function blocking activity [IC50 M], 2nd exp. (human alpha2-Antiplasmin [16]): 500 pM; EC50 (human alpha2-Antiplasmin [17]): 0.085 nM; EC50 (read off the curve); function blocking assay (Example 4), RFU of plasmin substrate cleavage (human alpha2-Antiplasmin [18]): ~400 pM |
